The values below come from the DeepSol protein solubility set.

This data set can be described thus: soluble on expression in E. coli; label from the status in PepcDB or PDB records.
With “MATDRENLLSDDYEETAAFCGCGYFRSFSFTRWRRGDDESRSRGGWSGCLQEERRGNWGSEKLKGLKEISEKIAGPKWKNFIRSFSSGRKKMRRDVDFTYDLKNYSLNFDDGGDGKDSSPERFVAPVVIKV”, the “soluble on expression in E. coli” value is “not soluble”.

Regarding “SMGNPQLISAGAKFRAAVAAEQPLQVVGAITAYAAKMAEAVGFKAVYLSGGGVAANSLGIPDLGISTMDDVLVDANRITNATNLPLLVDIDTGWGGAFNIARTIRSFIKAGVGAVHLEDQVGQKRCGHRPGKECVPAGEMVDRIKAAVDARTDETFVIMARTDAAAAEGIDAAIERAIAYVEAGADMIFPEAMKTLDDYRRFKEAVKVPILANLTEFGSTPLFTLDELKGANVDIALYCCGAYRAMNKAALNFYETVRRDGTQKAAVPTMQTRAQLYDYLGYYAYEEKLDQLFNQGRN”, the “soluble on expression in E. coli” value is listed as “soluble”.

In the case of “SAVFADLDLRAGSDLKALRGLVETAAHLGYSVVAINHIVDFKEKKQEIEKPVAVSELFTTLPIVQGKSRPIKILTRLTIIVSDPSHCNVLRATSSRARLYDVVAVFPKTEKLFHIACTHLDVDLVCITVTEKLPFYFKRPPINVAIDRGLAFELVYSPAIKDSTMRRYTISSALNLMQICKGKNVIISSAAERPLEIRGPYDVANLGLLFGLSESDAKAAVSTNCRAALLHGETRKTAFGIISTVKKPRPSEGDEDCLPASKKAKCEG”, the “soluble on expression in E. coli” value was “soluble”.

“MDYWEWKTDGAGLEADEVCITVQHGVTLYDKNEKTQRQNGKLSLTTHHLRYNDEADISTVLQLPLELVRRSGQAPSISSGFGPFSSAKIIVPLPKNAYVKLSFRSGGVDNFYAALVGALKKKTWLQTKTEAAASGRGSSSGASPASTTPVPNSRPPPPVPRGFGIAGVQQASLQSAAMSETLKDIDDVMNKASKLVNNIRRLRERSEAAAAAGSDAGSETAVERTTIESIESTLGLGAIVTRNHSNGSDSRFYRDLAVEMHTWMTHECNSKLFNDMPVVPLIELFALYNKARGGDLVSPLDVLNACTYMAAKMSSSCYDLVTLPSGRKALVNRDDSLLLAKLTTVLGPQLVNSKGSPVQDAWTKTSSQQQQRSGDASSLVRVSTTSDFPKASRDLKSVSDVSLAEKMQVATEVAADILTLLMLKGYLCCMDTGFDCYVYTWNIFVF”: the “soluble on expression in E. coli” value is recorded as “not soluble”.

Take “MGSDKIHHHHHHMETQDYAFQPGLTVGELLKSSQKDWQAAINHRFVKELFAGTIENKVLKDYLIQDYHFFDAFLSMLGACVAHADKLESKLRFAKQLGFLEADEDGYFQKAFKELKVAENDYLEVTLHPVTKAFQDLMYSAVASSDYAHLLVMLVIAEGLYLDWGSKDLALPEVYIHSEWINLHRGPFFAEWVQFLVDELNRVGKNREDLTELQQRWNQAVALELAFFDIGYDV”: the “soluble on expression in E. coli” value is given as “soluble”.

With “MGSDKIHHHHHHMIDARVKFRHLQTFVEVARQKSVVKAAELLHVTQPAVTKTIRELEEVLGVAVFEREGRGIKITRYGEVFLRHAGAALTALRQGLDSVSQERSGEGPPIRVGALPTVSTRIMPRAIALFLKEKTGARIKIVTGENAVLLEQLRIGDLDLVVGRLAAPDKMTGFSFEHLYSEQVVFAVRAGHPLISGRQSLFAHLSDYPVLMPTRASIIRPFVEHFLIANGIAGLPNQIETVSDSFGRAFVRSSDAIWIISAGVVATDIADGVLAALPVDTSETRGPVGLTMRTDAIPSLPLSILMQTLREVAGTAMAAEAKRTA”, the “soluble on expression in E. coli” value was “not soluble”.

With “MKTDGEFVSEHLMELITQQNLTINRVATLAGLNQSTVNAMFEGRSKRPTITTIRKVCGTLGISVHDFFDFPPYNEVEK”, the “soluble on expression in E. coli” value is reported as “soluble”.

Take “MSLVLPSGAFTLKNVTVPAAIFGQRGDLISTDIGIVDGQISAPGGKVIEMAEAMVLPAFVDCHTHLDKGHILPRAQNPDGTFVGALTSVREDHLNWTSKDVRTRADFSIRCAYAHGTRAIRTHVDSMNGQYKRSWPVFAGLREKWANKVELQMTSLITCESYGMPEYAEIAATVAHFDGVLGMVSFPMPDLKKVLLSHFETAGNLGLALDFHTDETMDPSSETLRVIAECVMETGFCGRVLVGHCCSLSQQEENLAMDTLDLVAKAKIDVVSLPMCNLYLQDRHAGRTPRGRGVTLVHEMKARGINVSFASDNTRDPFYAYGDMDMLEVMRMATRIAHLDHSDFDWVKSFSQTPAEVCDFPDLSLAHGTTADLVIFNARNWNELYSRPQSDRIVLRNGIAIDRKLPSYSELDALLEAYKEGHHHHHH”: the “soluble on expression in E. coli” value is “soluble”.
